Protein production data for 21 sequences are collected here from a protein production outcome set (Wang et al. 2014).

The nature of the data set: label from the status in PepcDB records.
In the case of “MIDGQIRLGHSMPWGMVGGGQGSQIGYIHRSAALRDGSFQLVAGAFDLDPERGRQFGQRLGVSAQRCYPDYRAMFEAEARRPDGIRAVSIATPNNTHFDICRAALHAGLHVVCEKPLCFTTAEAEALQRLAGEQRKIVGVTYGYAGHQLIEHAREMIVRGDLGEIRIVQMQFSHGFHSEGVEAANPAARWRMDPTFAGPSYVLGDIGTHPLYLSEVMLPGLKIARLLCSRQSFVKTRAPLEDNAFTIMEYQGGAIGYAWSCAVNAGSMHGQKIRVIGSKASLEWWDEHPNQLRYEVQGQPAQVLDRGMGYLHPAALHDDRIGAGHPEGLFEAWSNLYYRFALAMDATDRDDAAALRGIRYPDIHAGVEGVRWVENCVRSADAGGVWVDYR”, the protein production entry is “failed”.
Turning to “MIDVIQSLGIDLHFRQEIEQTLHMIYKEGLQFNGDLHEIALRFRLLRQEGHYVQEIIFKNILDKKGGFKDVVKNDVKGLTELFEASELRVEGEETLDGAREFTYSRLNELCSGRESHQKQEIMKSLAQPRHKTVRGLTSKRFTSMIKIAGQEDPEWLQSLLRVAEIDSIRLKSLTQGEMSQTFKWWTELGLEKDVEKARSQPLKWHTWSMKILQDPTLTEQRLDLTKPISLVYVIDDIFDVYGELEELTIFTRVVERWDHKGLKTLPKYMRVCFEALDMITTEISMKIYKSHGWNPTYALRQSWASLCKAFLVEAKWFNSGYLPTTEEYMKNGVVSSGVHLVMLHAYILLGEELTKEKVELIESNPGIVSSAATILRLWDDLGSAKDENQDGTDGSYVECYLNEYKGSTVDEARTHVAQKISRAWKRLNRECLNPCPFSRSFSKACLNIARTVPLMYSYDDDQRLPDEYLKSLM”, the protein production result is “failed”.
For the sequence “MIEEYLLRALLASLMVSTLLGLLSPLINVKGVAFLTHATFHALLFGAVLGMILGLIMGDLSLIFWISLLIAIIVVIGIAEMEIRGYSSDTAVGTMAGIIAGLTVLGFGILYKVMASRPYFALSESIVSYLTGEIFLITFDDLTLLVIGGFLVFTIMVIFYRDFLYLSFDPEGLESHGGNVRLYLMLLYFLVGAVGGLIVKTVGLITLQVLAVLPGAIALTISRGIREFVGISLGLTLAIQVSSTFLGYYFNIPPSGLATIFLGTIYGVLALRRKII”, the protein production entry is “failed”.
Take “MIEFDNLTYLHGKPQGTGLLKANPEDFVVVEDLGFEPDGEGEHILVRILKNGCNTRFVADALAKFLKIHAREVSFAGQKDKHAVTEQWLCARVPGKEMPDLSAFQLEGCQVLEYARHKRKLRLGALKGNAFTLVLREVSNRDDVEQRLIDICVKGVPNYFGAQRFGIGGSNLQGAQRWAQTNTPVRDRNKRSFWLSAARSALFNQIVAERLKKADVNQVVDGDALQLAGRGSWFVATTEELAELQRRVNDKELMITAALPGSGEWGTQREALAFEQAAVAAETELQALLVREKVEAARRAMLLYPQQLSWNWWDDVTVEIRFWLPAGSFATSVVRELINTTGDYAHIAE”: the protein production entry was “not failed”.
With “MIEFITPRTFLFSTQTVVFSVLLFVFYIFYRTFSRKYVKYWLMSIGALNFSYLIKSFVPYSSRNFSSDSWQILAELLLQIFQYSFLIFLIFGVYIAKNNKELSKEILSGGIGAIIILSVISTMFFAFDPSQAFNHFYLTISLPSFIFGCTFLSLACYLLFDKKSYFSSQVLMYFSAIFGLRYLMHSFISIVALTEPWFRQLELFLLYFDVAAHSILGFTLLIWMQGAERFATLSAISRAQYLGKHDSLTGALNREQVMAKLSDKMQELTHANKINKNQMKLAVFLIDIKQFKFINDTYGLKVGDFILGEIASRLNHSVFIPQAVGRLSGDSFMFVIEFEQISHVDRAVNHIHELIERCFRYEQQEITIQGSVGYCFYPDDADKSEDLLQKSNLALHHAETNNIPSVAFEEGMQAQGRHLVLMEKQLRSAIANDEFVLYYQPQLNLFTNKLEGVEALVRWQHPEKGLLSPGDFLTELETLGMHNEFDNYILVKACQASERWFKLYQRRVAIAVNITAVEFQNEQLVTNIQMLLHKYGIPSKYIELEITENVVMTDITRAMDSIVKLQSMGIKVSIDDFGTGYSSLAYLRDLPIDKIKIDRSFINEVAINDSDLTIVKSMVDLSHGLGKRVLAEGVETIEQLNLLRHLGCDAVQGYFISKPLPESKLVRYLKKK” the entry was “failed”; with “MIEIRKASTHDATAIQTLLTQLGYPQSLEFIEKKIRLFESDERQFIFVADIDHKLAGFLSLTMIPQIALEGDFARIAYVCVDQQFRGKRIGQTLVAYAEQIAKSWGCNRMELHSGDHRKQAHEFYLGQNYEDAPKYFRKFL”, “failed”; with “MIEKILLAVSGLGHAEEMLKTLKEVPSIQSAKVTVLHVVPSQATSSAMTDKWEEGGKILANAIQALNLDPSQVSSILRQGDPKDVVCQVADEIDADLIIMGSRGLKRLQSILSNSVSQYVFQLSSRPMLLVKDDIYVKRIKRVMVAMDNSDAAKHCLNLALFLLRGIVGSQLILANVTTDLRGKTSEVSEISPDKNPVLASAVAEAQRYGIQTRCFTSSGKPGEEICRLADELNVDLLLLGSPDRRPSVAKNFVDIDRLIGASLSDYVRVNASCPVLLARTTG”, “failed”.
On to “MIEKVYEFKRDAKTKVVEKLVNTEHVQINHIVLPRGEQMPKHYSNSYVHLIIIKGEMTLTLEDQEPHNYKEGNIVYVPFNVKMLIQNINSDILEFFVVKAPHPKKLNAPEDPIKCE”, for which the protein production result is on record as “not failed”.
On to “MIELDYLTIAFGGAIGAVLRYLVSRTINSLLPFSYIPLGTIIVNSVGSFFLSFLMFAAIEKVPLSKEAILFFGTGLLGAFTTFSTFTYETLSLIEESPARGVAYALANLLFAFTCAYFGMILGRGKV”, for which the protein production result is reported as “failed”.
For the sequence “MIENEFGEVSVDDQLIGDRATQIKTLTNGCICCSRSNELEDALLDLLDNLDKGNIQFDRLVIECTGMADPGPIIQTFFSHEVLCQRYLLDGVIALVDAVHADEQMNQFTIAQSQVGYADRILLTKTDVAGEAEKLHERLARINARAPVYTVTHGDIDLGLLFNTNGFMLEENVVSTKPRFHFIADKQNDISSIVVELDYPVDISEVSRVMENLLLESADKLLRYKGMLWIDGEPNRLLFQGVQRLYSADWDRPWGDEKPHSTMVFIGIQLPEEEIRAAFAGLRK”, the protein production result is given as “not failed”.
As for “MIEPSKITVEQWLNRWLTDYAKPHLRQSTWESYETVLRLHVIPTLGSIPLKKLQPADIQRLYASKLESGLSPTRVRYIHVVLHEAMSQARESGLLLQNPTEAAKPPRHPKKKVQPLEHHHHHH”, the protein production result is given as “not failed”.
With “MIEQPYPSVADTDAAPPTAQGKIDQYFQISARGSTQRREVVAGITTFMAMVYAVFVVPGMLGKAGFDTSAVFVAVCLTTAFGSLLMGLWAKLPIAIGCAISLTAFMAFGLVLGQHLSPAVALGAVFLMGVVFTAISVTGVRTWILRNLPAGVAHGAGIGIGLFLLLIASNEVGLVIKNPGPGLPVSLGNITAFPVMMSILGLAAIFGLERRRVPGGILLVIVAISALGLVFDPSVKFTGIFALPTLSAPGHTSLIGAMDIRGALSAAVLPSVLALVMTAVFDATGTIRAVAGQANQLDATGRIHNGGRALTADSVSSIFSAFFGGAPAAAYIESTVGVAAGARTGLAAVTVGALFLAVMFFSPLAGLVPSYATAPALMYVGLLMLSSVSRLHMDDLVDALSGLVCAVFIVLTCNIVTGIMLGFCTLVIGRIVSGEWRKLNIGTVAIAVALAAFYAGGWAI” the entry was “failed”; with “MIESIQELLQKEAQAVLNIPVTDAYEKAVELIVEQIHRKKGKLVTSGMGKAGQIAMNIATTFCSTGIPSVFLHPSEAQHGDLGILQENDLLLLISNSGKTREIVELTQLAHNLNPGLKFIVITGNPDSPLASESDVCLSTGHPAEVCTLGMTPTTSTTVMTVIGDILVVQTMKRTEFTIEEYSKRHHGGYLGEKSRKLCVK”, “not failed”.
In the case of “MIESVLLLVSGLPGSGKSTLARGMAEALAWPCLDKDDFLEALFDARGIGDAAWRRALSREADSRFLAALQAAPRAVACSWWRHPRGEGGSGTPIGGLARPGRLVLELHCRCPAELAAARFARRVRHPGHLDAQRDPGALSLQLRRAERLGPLGLGQCLILDASVQTDLSGALAWTRDALAAGALADPPRHPLEHHHHHH”, the protein production entry is given as “failed”.
On to “MIFALHIMLRFVPNIVPLSIINKKTMTRIGLLSDTHAFWDDKYLKYFENCDEIWHAGDIGSVEVARKLSAFRPFRAVYGNIDGQDIRRLYPQTNRFTVDGAEVLIKHIGGYPGNYDPSIRGSLLVKPPQLFISGHSHILKVKYDKTLDMLHINPGAAGISGFHKVRTLVRFCIDNGEFKDLEVIELADKL”, for which the protein production result was “failed”.
With “MIFENRLALSAMAGVNNAEFCRKQKASLVILGGFNADRRALEAAEKAVKRGRKEFLFGIDGIEGEIKKLGRRKFAVNVRSSSLEGYLNVAELVAEFEGIIEINAHCRQPEFVEIGCGEWLLFNHERLVEIVSKTSRIAPTFVKIRGGHKLDYEKIARKLFDAGCLAIHVDAMIPGGGCDFSLIERISRIGNVIGNNSFVDIESGERIIMAGAKMASAARAVLRDENFFEKMLRSPLLSQPVELSCGRFRLEHHHHHH” the entry was “not failed”; with “MIFNTLARYFLKRYLMTTIWFVLGVSSIIYLADFSETARRMSGLPGYSVPAALGLTALRLPLILQQTVPFIALFVGMTTLISLNRRYELVVTRAAGISAWQFILPFVLGAVFIGILSVMVLNPIAAWGQNKSLAMEAGLRNDAGGGRQQEIIPWMRQSSGGKDTIIGAKSFEDNGTMLLDVVLIDVDKDGNIVSRKDAKSAKLEDGYWLLNGVSETRAGHVPVRQESMQISTNLRREFVQERMTQTETVAFFDLSHKIEVAKSFGLSSKALETQYHFLLSTPLLLVAMTLIAATVSLKFSRFAQSRSVILGGIVSGFVLYVVTVLVRAFGSGGVVPPTVAVWVPVIVALALGATILLHQEDG”, “failed”.
With “MIFRLGDFRFPDDPARLYPDTPDRPWVLEIGFGDGRFWPHYARTFPEPPNYLGVEISGVSLLKAHRRLKDAGLTNAVLTKLPAEVLVAQVIPHGSLDAIIVNFPDPWPKAGHEDHRLLRVPFFQVAASRLKPGGAALLTTDHDEYFEFACAQAEASGVMRVERVGPPPAALETKYAQKWRDLGLGVNHARFVPTRHDPVPNGTFAPYSEEDPAVPHAVLTLPADFSPQHFDKLTVRGKTWTVVLLDLYATLRRGGWVALAHVVEGDLTQEVLVGITEREDGTHLVRLAKFGGPIITPGVKAAVGAVTEWLEGQGAVVKHRGY” the entry was “failed”; with “MIFRQLFDPQSSTYTYLLADPASREALLIDPVFEQVRRDAALLDELGLRLVATVDTHVHADHVTGAWLLKQRTGSTIAISAASGAQGADRYLNDGDRCAFGARYLTVRATPGHTSGCISLVLDDESMAFTGDCLLIRGTGRTDFQQGDPRALYRAVHARLFTLPAACLLYPAHDYRGLTVTSVGEERRFNPRLGGDLSEDDFAGYMRNLGLAHPRQIDVAVPANLQCGVAANAPDALAAADWAPLVYTFAGFWEIDPQWLEDHLPAVQVVDVREPDEFAGPLGHLPGATPIPLGELAARTGELARDRPIVTVCRAGGRSAQATVILLKAGFDAVANLGGGMLRWRGEGRVVMDGRS”, “failed”; with “MIFSFIFKVAVISSSGALAPGPLTAATAAIGVKRGWKGGFWVSVGHAAVELPLVILIATGVAVVLTHSSALSLLSVAGGVMLLSFAFLTAKSAFSKTEEKAESSANPFSTGVALSALNPFFIAWWAGVGAVLITEAISLWGYAGIAVLYLSHVWLDFAWLILLAHLTSMAIFSAKAYRALLVALAALVFLFGVDFLHYGLFSKHLLPI”, “failed”.
For “MIFYFSGTGNSKWIAEQIAKAQNEVLVFMPNAIRDGIEEFVLADDEKVGFVFPVYSWGPPLSVLRFLDWITLSNYHSQYVFFVCSCGDDTGLTEELFRRALSRKGMECNAGFSVAMPNNYVLLPGFDVDKKELEKKKLDEAVGRVEEINDSITGKKIGFHCNEGSFPWFKTKVLNPLFNRFMTSAKPFYATDDCIGCKRCERICPVGNVVMIGWRPVWGMDCTSCLACYHVCPKHAVQYGRRTKRKGQYLNPNVSISHEAAAQLEHHHHHH”, the protein production entry is listed as “not failed”.
